Measurements taken from article PMC3080791.

Target: α-dystroglycan isolated from skeletal muscle (UniProt Q28685)
Assay: ELISA

Chain of UniProt Q28685 (Q28685 30-653): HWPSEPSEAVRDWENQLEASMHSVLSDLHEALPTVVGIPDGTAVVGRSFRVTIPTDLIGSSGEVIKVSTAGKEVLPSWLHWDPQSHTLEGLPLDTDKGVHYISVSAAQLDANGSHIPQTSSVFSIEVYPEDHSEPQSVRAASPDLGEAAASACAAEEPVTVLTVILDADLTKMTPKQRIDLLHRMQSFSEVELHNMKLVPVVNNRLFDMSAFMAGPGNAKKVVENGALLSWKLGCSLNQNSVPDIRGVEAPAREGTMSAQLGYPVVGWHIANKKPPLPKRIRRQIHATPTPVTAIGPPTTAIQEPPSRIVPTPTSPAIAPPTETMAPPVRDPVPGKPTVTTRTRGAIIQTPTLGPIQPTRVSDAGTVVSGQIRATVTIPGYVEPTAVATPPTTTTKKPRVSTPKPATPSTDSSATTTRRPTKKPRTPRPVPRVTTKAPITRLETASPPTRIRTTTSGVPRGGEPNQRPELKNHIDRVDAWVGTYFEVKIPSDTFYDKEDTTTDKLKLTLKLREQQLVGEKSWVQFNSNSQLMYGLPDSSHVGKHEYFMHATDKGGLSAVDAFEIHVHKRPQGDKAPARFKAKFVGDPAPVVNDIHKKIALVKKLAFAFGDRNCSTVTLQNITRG

LCMV WE54 envelope glycoprotein displayed on FIV lentiviral vector particles (FIV-WE54) (complex)
OD relative to wild-type LCMV WE54: 0.33
